In patent publication US9738911B2, “Methods of producing 7-carbon chemicals via pyruvate and succinate semialdehyde aldol condensation” (INVISTA North America S.a r.l., priority 2012, dated 2017):

Key:
Assay type in all cases: biochemical
[1] = ω-transaminase activity assay, reverse direction, 7-aminoheptanoate to pimelate semialdehyde; conditions: 10 mM 7-aminoheptanoate, 10 mM pyruvate, cell free extract, 25° C., 4 h; against empty vector control (FIG. 15)
Procedure: (§1) A sequence encoding an N-terminal His-tag was added to the genes from Chromobacterium violaceum, Pseudomonas syringae, Rhodobacter sphaeroides, and Vibrio Fluvialis encoding the ω-transaminases of SEQ ID NOs: 8, 10, 11 and 13, respectively (see FIGS. 7F-7G) such that N-terminal HIS tagged ω-transaminases could be produced. Each of the resulting modified genes was cloned into a pET21a expression vector under control of the T7 promoter and each expression vector was transformed into a BL21[DE3] E. coli host. The resulting recombinant E. coli strains were cultivated at 37° C. in a 250 mL shake flask culture containing 50 mL LB media and antibiotic selection pressure, with shaking at 230 rpm. Each culture was induced overnight at 16° C. using 1 mM IPTG.
(§2) The pellet from each induced shake flask culture was harvested via centrifugation. Each pellet was resuspended and lysed via sonication. The cell debris was separated from the supernatant via centrifugation and the cell free extract was used immediately in enzyme activity assays.
Enzyme activity assays in the reverse direction (i.e., 7-aminoheptanoate to pimelate semialdehyde) were performed in a buffer composed of a final concentration of 50 mM HEPES buffer (pH=7.5), 10 mM 7-aminoheptanoate, 10 mM pyruvate and 100 μM pyridoxyl 5′ phosphate. Each enzyme activity assay reaction was initiated by adding cell free extract of the ω-transaminase gene product or the empty vector control to the assay buffer containing the 7-aminoheptanoate and incubated at 25° C. for 4 h, with shaking at 250 rpm. The formation of L-alanine from pyruvate was quantified via RP-HPLC.

[2] = ω-transaminase activity assay, forward direction, pimelate semialdehyde to 7-aminoheptanoate
Procedure: as §1, §2
Enzyme activity in the forward direction (i.e., pimelate semialdehyde to 7-aminoheptanoate) was confirmed for the transaminases of SEQ ID NO 10, SEQ ID NO 11 and SEQ ID NO 13. Enzyme activity assays were performed in a buffer composed of a final concentration of 50 mM HEPES buffer (pH=7.5), 10 mM pimelate semialdehyde, 10 mM L-alanine and 100 μM pyridoxyl 5′ phosphate. Each enzyme activity assay reaction was initiated by adding a cell free extract of the ω-transaminase gene product or the empty vector control to the assay buffer containing the pimelate semialdehyde and incubated at 25° C. for 4 h, with shaking at 250 rpm. The formation of pyruvate was quantified via RP-HPLC.

[3] = ω-transaminase activity assay, 7-aminoheptanol to 7-oxoheptanol
Procedure: A nucleotide sequence encoding an N-terminal His-tag was added to the Chromobacterium violaceum, Pseudomonas syringae and Rhodobacter sphaeroides genes encoding the ω-transaminases of SEQ ID NOs: 8, 10 and 11, respectively (see FIGS. 7F and 7G) such that N-terminal HIS tagged ω-transaminases could be produced. The modified genes were cloned into a pET21a expression vector under the T7 promoter.
Each expression vector was transformed into a BL21[DE3] E. coli host. Each resulting recombinant E. coli strain were cultivated at 37° C. in a 250 mL shake flask culture containing 50 mL LB media and antibiotic selection pressure, with shaking at 230 rpm. Each culture was induced overnight at 16° C. using 1 mM IPTG.
as §2
Enzyme activity assays in the reverse direction (i.e., 7-aminoheptanol to 7-oxoheptanol) were performed in a buffer composed of a final concentration of 50 mM HEPES buffer (pH=7.5), 10 mM 7-aminoheptanol, 10 mM pyruvate, and 100 μM pyridoxyl 5′ phosphate. Each enzyme activity assay reaction was initiated by adding cell free extract of the ω-transaminase gene product or the empty vector control to the assay buffer containing the 7-aminoheptanol and then incubated at 25° C. for 4 h, with shaking at 250 rpm. The formation of L-alanine was quantified via RP-HPLC.

[4] = Carboxylate reductase activity assay, N7-acetyl-7-aminoheptanoate to N7-acetyl-7-aminoheptanal; conditions: 2 mM N7-acetyl-7-aminoheptanoate, 1 mM ATP, 1 mM NADPH, enhanced by sfp gene product, room temperature, 20 min; against empty vector control (FIG. 12)
Procedure: The activity of each of the N-terminal His-tagged carboxylate reductases of SEQ ID NOs: 3, 6, and 7 (see Examples 4, and FIGS. 7B, 7E, and 7F) for converting N7-acetyl-7-aminoheptanoate to N7-acetyl-7-aminoheptanal was assayed in triplicate in a buffer composed of a final concentration of 50 mM HEPES buffer (pH=7.5), 2 mM N7-acetyl-7-aminoheptanoate, 10 mM MgCl2, 1 mM ATP, and 1 mM NADPH. The assays were initiated by adding purified carboxylate reductase and phosphopantetheine transferase or the empty vector control to the assay buffer containing the N7-acetyl-7-aminoheptanoate then incubated at room temperature for 20 min. The consumption of NADPH was monitored by absorbance at 340 nm.

Molecule	substrate acceptance, formation of L-alanine from pyruvate by RP-HPLC [1]	substrate acceptance, formation of pyruvate from L-alanine by RP-HPLC ([2]; 10 mM pimelate semialdehyde, 10 mM L-alanine, cell free extract, 25° C., 4 h, against empty vector control (FIG. 16))	reversibility of ω-transaminase activity: pimelate semialdehyde accepted, 7-aminoheptanoate synthesized ([2]; conclusion from the forward and reverse assays of Example 2)	substrate acceptance, formation of L-alanine by RP-HPLC ([3]; 10 mM 7-aminoheptanol, 10 mM pyruvate, cell free extract, 25° C., 4 h, against empty vector control (FIG. 19))	acceptance of 7-oxoheptanol, forming 7-aminoheptanol, concluded from reversibility ([3]; concluded from the reverse direction assay and Example 2)	substrate acceptance, consumption of NADPH by absorbance at 340 nm [4]
SEQ ID NO 10: Pseudomonas syringae ω-transaminase (Genbank Accession No. AAY39893.1) (protein, listed as Pseudomonas syringae) MSANNPQTLEWQALSSEHHLAPFSDYKQLKEKGPRIITRAEGVYLWDSEGNKILDGMSGLWCVAIGYGREELADAASKQMRELPYYNLFFQTAHPPVLELAKAISDIAPEGMNHVFFTGSGSEGNDTMLRMVRHYWALKGQPNKKTIISRVNGYHGSTVAGASLGGMTYMHEQGDLPIPGVVHIPQPYWFGEGGDMTPDEFGIWAAEQLEKKILELGVENVGAFIAEPIQGAGGVIVPPDSYWPKIKEILSRYDILFAADEVICGFGRTSEWFGSDFYGLRPDMMTIAKGLTSGYVPMGGLIVRDEIVAVLNEGGDFNHGFTYSGHPVAAAVALENIRILREEKIVERVRSETAPYLQKRLRELSDHPLVGEVRGVGLLGAIELVKDKTTRERYTDKGAGMICRTFCFDNGLIMRAVGDTMIIAPPLVISFAQIDELVEKARTCLDLTLAVLQG	accepted 7-aminoheptanote as substrate	accepted pimelate semialdehyde as substrate	accepted pimelate semialdehyde as substrate and synthesized 7-aminoheptanoate as a reaction product	accepted 7-aminoheptanol as substrate	accept 7-oxoheptanol as substrate and form 7-aminoheptanol	
SEQ ID NO 3: Mycobacterium smegmatis carboxylate reductase (Genbank Accession No. ABK71854.1) (protein, listed as Mycobacterium smegmatis) MTSDVHDATDGVTETALDDEQSTRRIAELYATDPEFAAAAPLPAVVDAAHKPGLRLAEILQTLFTGYGDRPALGYRARELATDEGGRTVTRLLPRFDTLTYAQVWSRVQAVAAALRHNFAQPIYPGDAVATIGFASPDYLTLDLVCAYLGLVSVPLQHNAPVSRLAPILAEVEPRILTVSAEYLDLAVESVRDVNSVSQLVVFDHHPEVDDHRDALARAREQLAGKGIAVTTLDAIADEGAGLPAEPIYTADHDQRLAMILYTSGSTGAPKGAMYTEAMVARLWTMSFITGDPTPVINVNFMPLNHLGGRIPISTAVQNGGTSYFVPESDMSTLFEDLALVRPTELGLVPRVADMLYQHHLATVDRLVTQGADELTAEKQAGAELREQVLGGRVITGFVSTAPLAAEMRAFLDITLGAHIVDGYGLTETGAVTRDGVIVRPPVIDYKLIDVPELGYFSTDKPYPRGELLVRSQTLTPGYYKRPEVTASVFDRDGYYHTGDVMAETAPDHLVYVDRRNNVLKLAQGEFVAVANLEAVFSGAALVRQIFVYGNSERSFLLAVVVPTPEALEQYDPAALKAALADSLQRTARDAELQSYEVPADFIVETEPFSAANGLLSGVGKLLRPNLKDRYGQRLEQMYADIAATQANQLRELRRAAATQPVIDTLTQAAATILGTGSEVASDAHFTDLGGDSLSALTLSNLLSDFFGFEVPVGTIVNPATNLAQLAQHIEAQRTAGDRRPSFTTVHGADATEIRASELTLDKFIDAETLRAAPGLPKVTTEPRTVLLSGANGWLGRFLTLQWLERLAPVGGTLITIVRGRDDAAARARLTQAYDTDPELSRRFAELADRHLRVVAGDIGDPNLGLTPEIWHRLAAEVDLVVHPAALVNHVLPYRQLFGPNVVGTAEVIKLALTERIKPVTYLSTVSVAMGIPDFEEDGDIRTVSPVRPLDGGYANGYGNSKWAGEVLLREAHDLCGLPVATFRSDMILAHPRYRGQVNVPDMFTRLLLSLLITGVAPRSFYIGDGERPRAHYPGLTVDFVAEAVTTLGAQQREGYVSYDVMNPHDDGISLDVFVDWLIRAGHPIDRVDDYDDWVRRFETALTALPEKRRAQTVLPLLHAFRAPQAPLRGAPEPTEVFHAAVRTAKVGPGDIPHLDEALIDKYIRDLREFGLI						accepted N7-acetyl-7-aminoheptanoate as substrate
SEQ ID NO 6: Mycobacterium massiliense carboxylate reductase (Genbank Accession No. EIV 11143.1) (protein, Mycobacterium massiliense) MTNETNPQQEQLSRRIESLRESDPQFRAAQPDPAVAEQVLRPGLHLSEAIAALMTGYAERPALGERARELVIDQDGRTTLRLLPRFDTTTYGELWSRTTSVAAAWHHDATHPVKAGDLVATLGFTSIDYTVLDLAIMILGGVAVPLQTSAPASQWTTILAEAEPNTLAVSIELIGAAMESVRATPSIKQVVVFDYTPEVDDQREAFEAASTQLAGTGIALETLDAVIARGAALPAAPLYAPSAGDDPLALLIYTSGSTGAPKGAMHSENIVRRWWIREDVMAGTENLPMIGLNFMPMSHIMGRGTLTSTLSTGGTGYFAASSDMSTLFEDMELIRPTALALVPRVCDMVFQRFQTEVDRRLASGDTASAEAVAAEVKADIRDNLFGGRVSAVMVGSAPLSEELGEFIESCFELNLTDGYGSTEAGMVFRDGIVQRPPVIDYKLVDVPELGYFSTDKPHPRGELLLKTDGMFLGYYKRPEVTASVFDADGFYMTGDIVAELAHDNIEIIDRRNNVLKLSQGEFVAVATLEAEYANSPVVHQIYVYGSSERSYLLAVVVPTPEAVAAAKGDAAALKTTIADSLQDIAKEIQLQSYEVPRDFIIEPQPFTQGNGLLTGIAKLARPNLKAHYGPRLEQMYAEIAEQQAAELRALHGVDPDKPALETVLKAAQALLGVSSAELAADAHFTDLGGDSLSALSFSDLLRDIFAVEVPVGVIVSAANDLGGVAKFVDEQRHSGGTRPTAETVHGAGHTEIRAADLTLDKFIDEATLHAAPSLPKAAGIPHTVLLTGSNGYLGHYLALEWLERLDKTDGKLIVIVRGKNAEAAYGRLEEAFDTGDTELLAHFRSLADKHLEVLAGDIGDPNLGLDADTWQRLADTVDVIVHPAALVNHVLPYNQLFGPNVVGTAEIIKLAITTKIKPVTYLSTVAVAAYVDPTTFDEESDIRLISAVRPIDDGYANGYGNAKWAGEVLLREAHDLCGLPVAVFRSDMILAHSRYTGQLNVPDQFTRLILSLIATGIAPGSFYQAQTTGERPLAHYDGLPGDFTAEAITTLGTQVPEGSEGFVTYDCVNPHADGISLDNFVDWLIEAGYPIARIDNYTEWFTRFDTAIRGLSEKQKQHSLLPLLHAFEQPSAAENHGVVPAKRFQHAVQAAGIGPVGQDGTTDIPHLSRRLIVKYAKDLEQLGLL						accepted N7-acetyl-7-aminoheptanoate as substrate
